{
  "source": "paper doi:10.1101/2020.01.10.902072",
  "about": "(bioRxiv, 2020)",
  "proteins": {"B1": {"name": "rat GluD2 receptor, C-terminally truncated at residue 870 (GluD2Δ870) (receptor, UniProt Q63226 24-870, looked up)", "chain": "DSIIHIGAIFDESAKKDDEVFRTAVGDLNQNEEILQTEKITFSVTFVDGNNPFQAVQEACELMNQGILALVSSIGCTSAGSLQSLADAMHIPHLFIQRSTAGTPRSGCGLTRSNRNDDYTLSVRPPVYLNEVILRVVTEYAWQKFIIFYDSEYDIRGIQEFLDKVSQQGMDVALQKVENNINKMITTLFDTMRIEELNRYRDTLRRAILVMNPATAKSFISEVVETNLVAFDCHWIIINEEINDVDVQELVRRSIGRLTIIRQTFPVPQNISQRCFRGNHRISSTLCDPKDPFAQNMEISNLYIYDTVLLLANAFHKKLEDRKWHSMASLSCIRKNSKPWQGGRSMLETIKKGGVNGLTGDLEFGENGGNPNVHFEILGTNYGEELGRGVRKLGCWNPVTGLNGSLTDKKLENNMRGVVLRVVTVLEEPFVMVSENVLGKPKKYQGFSIDVLDALSNYLGFNYEIYVAPDHKYGSPQEDGTWNGLVGELVFKRADIGISALTITPDRENVVDFTTRYMDYSVGVLLRRAEKTVDMFACLAPFDLSLWACIAGTVLLVGLLVYLLNWLNPPRLQMGSMTSTTLYNSMWFVYGSFVQQGGEVPYTTLATRMMMGAWWLFALIVISSYTANLAAFLTITRIESSIQSLQDLSKQTDIPYGTVLDSAVYQHVRMKGLNPFERDSMYSQMWRMINRSNGSENNVLESQAGIQKVKYGNYAFVWDAAVLEYVAINDPDCSFYTVGNTVADRGYGIALQHGSPYRDVFSQRILELQQSGDMDILKHKWWPKNGQCDLYSSVDAKQKGGALDIKSLAGVFCILAAGIVLSCLIAVLETWWSRRKGSRVPSKEDDK"}},
  "target": "the molecule itself",
  "experiment": "cryo-EM structure",
  "data": [
    {"protein": "B1", "values": [
      {"measurement": "stoichiometry N", "result": 4}
    ]}
  ]
}
